In data set [1] the test system is HeLa Kyoto. In words: solubility in G1/S (NP-40 vs SDS abundance) (log2 ratio); higher = more soluble. The following applies: cell cycle stage: G1/S.
Data set [2] concerns HeLa Kyoto. In words: melting temperature (median over replicates), in situ; higher = more thermally stable.
In data set [3] the test system is HeLa Kyoto. Nature of the data set: solubility change mitosis vs G1/S (difference of NP-40 vs SDS log2 ratios) (log2 ratio difference); higher = more soluble in mitosis.
Data set [4] concerns HeLa Kyoto. In words: thermal stability score vs G1/S (z-score of summed log2 fold changes over temperatures); higher = more thermally stable than in G1/S.
[5] abbreviates: cell cycle stage: early G1 (4.5 h after nocodazole release).
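For melting temperature (median over replicates), in situ in this document: HeLa Kyoto cells synchronized by double thymidine or nocodazole block, proteins quantified by TMT10plex mass spectrometry, three independent biological replicates.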
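For solubility change mitosis vs G1/S (difference of NP-40 vs SDS log2 ratios) in this document: synchronized HeLa Kyoto cells (double thymidine block for G1/S, nocodazole release for mitosis), protein amounts in NP-40 versus SDS lysates quantified by mass spectrometry, three biological replicates.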
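For solubility in G1/S (NP-40 vs SDS abundance) in this document: HeLa Kyoto cells arrested at G1/S by double thymidine block, proteins quantified by TMT10plex mass spectrometry in mild NP-40 versus SDS extracts, three biological replicates.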
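For thermal stability score vs G1/S (z-score of summed log2 fold changes over temperatures) in this document: synchronized HeLa Kyoto cells, proteins quantified by TMT10plex mass spectrometry, three biological replicates, mitosis taken 0.5 h after nocodazole release, G1/S directly after double thymidine block.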

EMC10, sequence (chain, as listed by the source): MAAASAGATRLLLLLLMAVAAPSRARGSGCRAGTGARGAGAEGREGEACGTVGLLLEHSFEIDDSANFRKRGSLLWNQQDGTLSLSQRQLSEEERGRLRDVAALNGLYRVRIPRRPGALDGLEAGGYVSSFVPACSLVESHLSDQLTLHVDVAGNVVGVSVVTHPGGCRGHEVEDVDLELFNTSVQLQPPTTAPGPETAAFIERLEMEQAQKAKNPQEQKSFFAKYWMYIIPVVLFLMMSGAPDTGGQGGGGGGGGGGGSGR

As to “MLMLFVFGVLLHEVSLSGQNEAPPNTHSIPGEPLYNYASIRLPEEHIPFFLHNNRHIATVCRKDSLCPYKKHLEKLKYCWGYEKSCKPEFRFGYPVCSYVDMGWTDTLESAEDIFWKQADFGYARERLEEMHVLCQPKETSDSSLVCSRYLQYCRATNLYLDLRNIKRNHDRFKEDFFQSGEIGGHCKLDIRTLTSEGQRKSPLQSWFAELQSYTQLNFRPIEDAKCDIVIEKPTYFMKLDAGVNMYHHFCDFINLYITQHVNNSFSTDVYIVMWDTSSYGYGDLFSDTWNAFTDYDVIHLKTYDSKRVCFKEAVFSLLPRMRYGLFYNTPLISGCQNTGLFRAFAQHVLHRLNITQEGPKDGKIRVTILARSTEYRKILNQNELVNALKTVSTFEVQIVDYKYRELGFLDQLRITHNTDIFIGMHGAGLTHLLFLPDWAAVFELYNCEDERCYLDLARLRGVHYITWRRQNKVFPQDKGHHPTLGEHPKFTNYSFDVEEFMYLVLQAADHVLQHPKWPFKKKHDEL [EOGT]”, in data set [1], the “solubility in G1/S (log2)” value was -0.298. The melting temperature in data set [2] (cell cycle stage: G1/S) came to 53.3 °C; in data set [2] (cell cycle stage: mitosis), 54.9 °C. Moreover, the “solubility change mitosis (log2)” value in data set [3] was -0.00851. The thermal stability score in data set [4] (setting [5]) came to 2.26; in data set [4] (cell cycle stage: mitosis), 3.42.

For the substance “MGLQLRALLGAFGRWTLRLGPRPSCSPRMAGNAEPPPAGAACPQDRRSCSGRAGGDRVWEDGEHPAKKLKSGGDEERREKPPKRKIVLLMAYSGKGYHGMQRNVGSSQFKTIEDDLVSALVRSGCIPENHGEDMRKMSFQRCARTDKGVSAAGQVVSLKVWLIDDILEKINSHLPSHIRILGLKRVTGGFNSKNRCDARTYCYLLPTFAFAHKDRDVQDETYRLSAETLQQVNRLLACYKGTHNFHNFTSQKGPQDPSACRYILEMYCEEPFVREGLEFAVIRVKGQSFMMHQIRKMVGLVVAIVKGYAPESVLERSWGTEKVDVPKAPGLGLVLERVHFEKYNQRFGNDGLHEPLDWAQEEGKVAAFKEEHIYPTIIGTERDERSMAQWLSTLPIHNFSATALTAGGTGAKVPSPLEGSEGDGDTD [PUS1]”, the “solubility in G1/S (log2)” value in data set [1] came out at 0.281. The melting temperature in data set [2] (cell cycle stage: G1/S) is 46.8 °C; in data set [2] (cell cycle stage: mitosis), 48.7 °C. In addition, the “solubility change mitosis (log2)” value in data set [3] was -0.119. Further, the thermal stability score amounted to 1.9 in data set [4] (setting [5]) and 6.23 in data set [4] (cell cycle stage: mitosis).

For “MSDTSESGAGLTRFQAEASEKDSSSMMQTLLTVTQNVEVPETPKASKALEVSEDVKVSKASGVSKATEVSKTPEAREAPATQASSTTQLTDTQVLAAENKSLAADTKKQNADPQAVTMPATETKKVSHVADTKVNTKAQETEAAPSQAPADEPEPESAAAQSQENQDTRPKVKAKKARKVKHLDGEEDGSSDQSQASGTTGGRRVSKALMASMARRASRGPIAFWARRASRTRLAAWARRALLSLRSPKARRGKARRRAAKLQSSQEPEAPPPRDVALLQGRANDLVKYLLAKDQTKIPIKRSDMLKDIIKEYTDVYPEIIERAGYSLEKVFGIQLKEIDKNDHLYILLSTLEPTDAGILGTTKDSPKLGLLMVLLSIIFMNGNRSSEAVIWEVLRKLGLRPGIHHSLFGDVKKLITDEFVKQKYLDYARVPNSNPPEYEFFWGLRSYYETSKMKVLKFACKVQKKDPKEWAAQYREAMEADLKAAAEAAAEAKARAEIRARMGIGLGSENAAGPCNWDEADIGPWAKARIQAGAEAKAKAQESGSASTGASTSTNNSASASASTSGGFSAGASLTATLTFGLFAGLGGAGASTSGSSGACGFSYK [MAGED2]”, the “solubility in G1/S (log2)” value in data set [1] came to 0.259. Also, the figures for the melting temperature in data set [2] (cell cycle stage: G1/S) and in data set [2] (cell cycle stage: mitosis) were 46.9 °C and 48.4 °C, respectively. Besides, the “solubility change mitosis (log2)” value in data set [3] was -0.157. Moreover, the thermal stability score in data set [4] (setting [5]) was 2.46; in data set [4] (cell cycle stage: mitosis) it was 4.54.

For the substance EMC10, the “solubility in G1/S (log2)” value in data set [1] turned out to be 0.514. Besides, the results for the melting temperature in data set [2] (cell cycle stage: G1/S) and in data set [2] (cell cycle stage: mitosis) were 52.2 °C and 54.1 °C, respectively. Moreover, the “solubility change mitosis (log2)” value in data set [3] is -0.339. The thermal stability score in data set [4] (setting [5]) was 1.37; in data set [4] (cell cycle stage: mitosis), 0.155.

For “MVSWMISRAVVLVFGMLYPAYYSYKAVKTKNVKEYVRWMMYWIVFALYTVIETVADQTVAWFPLYYELKIAFVIWLLSPYTKGASLIYRKFLHPLLSSKEREIDDYIVQAKERGYETMVNFGRQGLNLAATAAVTAAVKSQGAITERLRSFSMHDLTTIQGDEPVGQRPYQPLPEAKKKSKPAPSESAGYGIPLKDGDEKTDEEAEGPYSDNEMLTHKGLRRSQSMKSVKTTKGRKEVRYGSLKYKVKKRPQVYF [REEP3]”, the “solubility in G1/S (log2)” value in data set [1] was -0.258. Besides, the melting temperature in data set [2] (cell cycle stage: G1/S) is 52.8 °C; in data set [2] (cell cycle stage: mitosis), 54.9 °C. In data set [3], the “solubility change mitosis (log2)” value is -0.0257. In addition, the results for the thermal stability score in data set [4] (setting [5]) and in data set [4] (cell cycle stage: mitosis) were -1.24 and -0.732, respectively.

As to “MDDQQALNSIMQDLAVLHKASRPALSLQETRKAKSSSPKKQNDVRVKFEHRGEKRILQFPRPVKLEDLRSKAKIAFGQSMDLHYTNNELVIPLTTQDDLDKAVELLDRSIHMKSLKILLVINGSTQATNLEPLPSLEDLDNTVFGAERKKRLSIIGPTSRDRSSPPPGYIPDELHQVARNGSFTSINSEGEFIPESMDQMLDPLSLSSPENSGSGSCPSLDSPLDGESYPKSRMPRAQSYPDNHQEFSDYDNPIFEKFGKGGTYPRRYHVSYHHQEYNDGRKTFPRARRTQGTSLRSPVSFSPTDHSLSTSSGSSIFTPEYDDSRIRRRGSDIDNPTLTVMDISPPSRSPRAPTNWRLGKLLGQGAFGRVYLCYDVDTGRELAVKQVQFDPDSPETSKEVNALECEIQLLKNLLHERIVQYYGCLRDPQEKTLSIFMEYMPGGSIKDQLKAYGALTENVTRKYTRQILEGVHYLHSNMIVHRDIKGANILRDSTGNVKLGDFGASKRLQTICLSGTGMKSVTGTPYWMSPEVISGEGYGRKADIWSVACTVVEMLTEKPPWAEFEAMAAIFKIATQPTNPKLPPHVSDYTRDFLKRIFVEAKLRPSADELLRHMFVHYH [MAP3K2]”, the “solubility in G1/S (log2)” value in data set [1] is 0.0839. In addition, the melting temperature in data set [2] (cell cycle stage: G1/S) worked out at 51.3 °C; in data set [2] (cell cycle stage: mitosis), 51.4 °C. For the same substance, the “solubility change mitosis (log2)” value in data set [3] is -0.043. Also, the thermal stability score in data set [4] (setting [5]) was 0.798; in data set [4] (cell cycle stage: mitosis), 1.24.

“MATDTSQGELVHPKALPLIVGAQLIHADKLGEKVEDSTMPIRRTVNSTRETPPKSKLAEGEEEKPEPDISSEESVSTVEEQENETPPATSSEAEQPKGEPENEEKEENKSSEETKKDEKDQSKEKEKKVKKTIPSWATLSASQLARAQKQTPMASSPRPKMDAILTEAIKACFQKSGASVVAIRKYIIHKYPSLELERRGYLLKQALKRELNRGVIKQVKGKGASGSFVVVQKSRKTPQKSRNRKNRSSAVDPEPQVKLEDVLPLAFTRLCEPKEASYSLIRKYVSQYYPKLRVDIRPQLLKNALQRAVERGQLEQITGKGASGTFQLKKSGEKPLLGGSLMEYAILSAIAAMNEPKTCSTTALKKYVLENHPGTNSNYQMHLLKKTLQKCEKNGWMEQISGKGFSGTFQLCFPYYPSPGVLFPKKEPDDSRDEDEDEDESSEEDSEDEEPPPKRRLQKKTPAKSPGKAASVKQRGSKPAPKVSAAQRGKARPLPKKAPPKAKTPAKKTRPSSTVIKKPSGGSSKKPATSARKEVKLPGKGKSTMKKSFRVKK [HP1BP3]”: in data set [1], the “solubility in G1/S (log2)” value is -1.01. Besides, the melting temperature in data set [2] (cell cycle stage: G1/S) stood at 51.8 °C; in data set [2] (cell cycle stage: mitosis), 51.5 °C. The “solubility change mitosis (log2)” value in data set [3] amounted to 0.474. Moreover, the thermal stability score in data set [4] (setting [5]) was found to be 0.824; in data set [4] (cell cycle stage: mitosis), 0.423.

For “MVFYFTSSSVNSSAYTIYMGKDKYENEDLIKHGWPEDIWFHVDKLSSAHVYLRLHKGENIEDIPKEVLMDCAHLVKANSIQGCKMNNVNVVYTPWSNLKKTADMDVGQIGFHRQKDVKIVTVEKKVNEILNRLEKTKVERFPDLAAEKECRDREERNEKKAQIQEMKKREKEEMKKKREMDELRSYSSLMKVENMSSNQDGNDSDEFM [CCDC25]”, the “solubility in G1/S (log2)” value in data set [1] stood at 0.0307. For the same substance, the melting temperature amounted to 50.4 °C in data set [2] (cell cycle stage: G1/S) and 50.6 °C in data set [2] (cell cycle stage: mitosis). Also, the “solubility change mitosis (log2)” value in data set [3] was -0.118. In addition, the values for the thermal stability score in data set [4] (setting [5]) and in data set [4] (cell cycle stage: mitosis) were -0.0583 and -0.134, respectively.

On to “MHPAVFLSLPDLRCSLLLLVTWVFTPVTTEITSLDTENIDEILNNADVALVNFYADWCRFSQMLHPIFEEASDVIKEEFPNENQVVFARVDCDQHSDIAQRYRISKYPTLKLFRNGMMMKREYRGQRSVKALADYIRQQKSDPIQEIRDLAEITTLDRSKRNIIGYFEQKDSDNYRVFERVANILHDDCAFLSAFGDVSKPERYSGDNIIYKPPGHSAPDMVYLGAMTNFDVTYNWIQDKCVPLVREITFENGEELTEEGLPFLILFHMKEDTESLEIFQNEVARQLISEKGTINFLHADCDKFRHPLLHIQKTPADCPVIAIDSFRHMYVFGDFKDVLIPGKLKQFVFDLHSGKLHREFHHGPDPTDTAPGEQAQDVASSPPESSFQKLAPSEYRYTLLRDRDEL [ERP44]”, for which the “solubility in G1/S (log2)” value in data set [1] is 0.277. Moreover, the melting temperature in data set [2] (cell cycle stage: G1/S) was 53.9 °C; in data set [2] (cell cycle stage: mitosis) it was 54.1 °C. For the same substance, in data set [3], the “solubility change mitosis (log2)” value is -0.0724. Further, the results for the thermal stability score in data set [4] (setting [5]) and in data set [4] (cell cycle stage: mitosis) were 5.67 and 6.88, respectively.

As to “MYDNMSTMVYIKEDKLEKLTQDEIISKTKQVIQGLEALKNEHNSILQSLLETLKCLKKDDESNLVEEKSNMIRKSLEMLELGLSEAQVMMALSNHLNAVESEKQKLRAQVRRLCQENQWLRDELANTQQKLQKSEQSVAQLEEEKKHLEFMNQLKKYDDDISPSEDKDTDSTKEPLDDLFPNDEDDPGQGIQQQHSSAAAAAQQGGYEIPARLRTLHNLVIQYASQGRYEVAVPLCKQALEDLEKTSGHDHPDVATMLNILALVYRDQNKYKDAANLLNDALAIREKTLGKDHPAVAATLNNLAVLYGKRGKYKEAEPLCKRALEIREKVLGKDHPDVAKQLNNLALLCQNQGKYEEVEYYYQRALEIYQTKLGPDDPNVAKTKNNLASCYLKQGKFKQAETLYKEILTRAHEREFGSVDDENKPIWMHAEEREECKGKQKDGTSFGEYGGWYKACKVDSPTVTTTLKNLGALYRRQGKFEAAETLEEAAMRSRKQGLDNVHKQRVAEVLNDPENMEKRRSRESLNVDVVKYESGPDGGEEVSMSVEWNGGVSGRASFCGKRQQQQWPGRRHR [KLC1]”, in data set [1], the “solubility in G1/S (log2)” value was determined as 0.299. Also, the melting temperature stood at 51.6 °C in data set [2] (cell cycle stage: G1/S) and 51.4 °C in data set [2] (cell cycle stage: mitosis). Also, the “solubility change mitosis (log2)” value in data set [3] is -0.175. For the same substance, the thermal stability score in data set [4] (setting [5]) came to 0.136; in data set [4] (cell cycle stage: mitosis), 0.172.

The values above are taken from the supplement of paper PMC5998384.
